In the experiment the test system is COVID-19. As to the kind of experiment: Intubated hospitalized critically ill COVID-19 patients. The class given is in vivo, human. The following applies: patients in a critical condition with cytokine storm.

B1: lactoferrin (protein, UniProt P24627 20-708, looked up)
Lactotransferrin: APRKNVRWCTISQPEWFKCRRWQWRMKKLGAPSITCVRRAFALECIRAIAEKKADAVTLDGGMVFEAGRDPYKLRPVAAEIYGTKESPQTHYYAVAVVKKGSNFQLDQLQGRKSCHTGLGRSAGWIIPMGILRPYLSWTESLEPLQGAVAKFFSASCVPCIDRQAYPNLCQLCKGEGENQCACSSREPYFGYSGAFKCLQDGAGDVAFVKETTVFENLPEKADRDQYELLCLNNSRAPVDAFKECHLAQVPSHAVVARSVDGKEDLIWKLLSKAQEKFGKNKSRSFQLFGSPPGQRDLLFKDSALGFLRIPSKVDSALYLGSRYLTTLKNLRETAEEVKARYTRVVWCAVGPEEQKKCQQWSQQSGQNVTCATASTTDDCIVLVLKGEADALNLDGGYIYTAGKCGLVPVLAENRKSSKHSSLDCVLRPTEGYLAVAVVKKANEGLTWNSLKDKKSCHTAVDRTAGWNIPMGLIVNQTGSCAFDEFFSQSCAPGADPKSRLCALCAGDDQGLDKCVPNSKEKYYGYTGAFRCLAEDVGDVAFVKNDTVWENTNGESTADWAKNLNREDFRLLCLDGTRKPVTEAQSCHLAVAPNHAVVSRSDRAAHVKQVLLHQQALFGKNGKNCPDKFCLFKSETKNLLFNDNTECLAKLGGRPTYEEYLGTEYVTAIANLKKCSTSPLLEACAFLTR
notes: bovine LF used
In the case of B1, the “IL-6, TNF alpha, ferritin and DD2 parameters” value is “normalizing or decreasing”.

The values are drawn from patent US20230190652A1, “COMPOSITION FOR THE TREATMENT OF COVID-19 AND TREATMENT METHOD” (priority 2020, published 2023).
